Variants at the floor of the assay were thinned out.
B1: TPR 5TU (parent)
chain: GGAUCUUCUCGAUCUAACAAAAAAGACAAAUCUGCCACAAAGCUUGAGAGCAUCUUCGGAUGCAGAGGCGGCAGCCUUCGGUGGCGCGAUAGCGCCAACGUUCUCAACUAUGACACGCAAAACGCGUGCUCCGUUGAAUGGAGUUUAUCAUG

Variants of: B1
Experiment: polymerase ribozyme fitness, log enrichment relative to wild type (log ratio); higher = more active; in vitro selection for triplet polymerase activity
Summary of the method: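 Streptavidin-bead capture of gel-excised extended constructs, followed by RT-PCR, closed a single triplicate in vitro selection round. That round began by annealing PCR-built, transcribed mutant libraries of each subunit of a heterodimeric triplet polymerase ribozyme with a biotinylated primer, the partner subunit and triplets, then incubating them frozen at −7 °C. After Illumina sequencing of inputs and outputs, genotypes needed ≥10 input reads and ≥1 read per output. Fitness is the base-2 logarithm of genotype enrichment over wild-type enrichment, using inverse-variance-weighted replicate averages.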

Variant | polymerase ribozyme fitness (log ratio)
GGAUCUUCUCGAUCUAACAAUAAAGACAAAUCUGCCACAAAGCUUGAGAGCAUCUUCGGAUGCAGAGGCGGCAGCCUUCGGUGGCGCGAUAGCGCCAACGCUCUCAACUAUGACACGCAAAACGCGUGCUCCGUUGAAUGGAGUUUAUCAUG | 0.366
GGAUCUUCUCGAUCUAACAAUAAAGACAAAUCUGCCACAAAGCUUGAGAGCAACUUCGGAUGCAGAGGCGGCCGCAUUCGGUGGCGCAAUAGCGCCAACGUUCUCAACUAUGAUACGCAAAACGCGUGCUCCGAUGAAUGGAGUUUAUCAUG | ≤ -4.2
GGAUCUUCUCGAUCUAACAAACAUGACAAAUCUGCCACAAAGCUUGAGAGCAUAUUCGGAUGCAGAGGCGGCAGCCAUCGGUGUCGCGAUAGCGCCAACGUUCUCAACUAUGACACGCAAAACGCGUGCUCCGUUGAAUGGAGUUUAUCAUG | ≤ -4.2
GGAUCUUCUCGAUCUAACAAUAAAGACAAAUCUGCCACAAAGCUUGAGAGCAUCUUCGGAUGCAGAGGCGGCAGCCUUCGGUGGCGCGAUACCGCCAACGUUCUCAACUAUGACACGCAAAACGCGUGCUCCGUUGAAUGGAGUUUAUCAUG | 0.0736
GGAUCUUCUCGAUCUAACAAUAAAGACAAAUCUGCCACAAAGCUUGAGAGCAUCUUCCGAUGCAGAGGCGGCAGCGUUCGGUGGCGUGAUAGCGCCAACGUUCUAAACUAUGACACGCUAAACGCGUGCUCCGUUGAAUGGAGUUUAUCAUG | ≤ -4.2
GGAUCUUCUCGAUCUAACAAUAAAGACAAAUCUGCCACAAAGCUCGAGAGCAUCUUCGGAUGCAGAGGCGGCAGCCUUCGGUGGAGCGAUAGCGCCAACGUUCUCAACUAUGACACGCAAAACGCGUGCUCCGUUGAAUGGAGUUUAUCAUG | -3.36
GGAUCUUCUCGAUCUAACAAUAAAGACAAAUCUGCCACAAAGCUUGAGACCAACUUCGGAUGCAGAGGCGGCAGCCUUCGGUGGCGCGAUAGCGCCAACGUUCUCAACUAUGACACGCAAAACGCGUGCUCCGUUGAAUGGAGUUUAUCAUG | -3.62
GGAUCUUCUCGAUCUAACAAUAAAGACAAAUCAGCCACGAAGCUUGAGAGCAUCUUCGGAUGCAGAGGCGGCAGCCUUCGGUGGCGUGAUAGCGCCAACGUUCUCAACUAUGACACGCAAAACGCGUGCUCCGUUCAAUGGAGUUUAUCAUG | ≤ -4.2
GGAUCUUCUCGAUCUAACAAUAAAGACAAAUCUGCCACAAAGCUUGAGAGCAUCUUCGGAUGCAGAGGCGGCAGCCUUCGGUGACGCGAUAGCGCCAACGUUCUCAACUAUGACACGCAAAACGCGUGCUCCGUUGAAUGGAGUUUAUCAUG | 0.266
GGAUCUUCUCGAUCUAACAAUAAAGACAAAUCUGCCACAAAGCUUGAGAGCAUCUACGGAUGCAGAGGCGGCAGCCUUCGGUGGCGCGAUAGCGCCAACGUUCUCAACUAUGACACGCAAAACGCGUGCUCCGUUGAAUGGAGUUUAUCAUG | -0.173
GGAUCUUCUCGAUCUAACAAUAAAGACAAAUCCGCCACAAAACUGGAGAGCAACUUCGGAUGCAGAGGCGGCAGCCUUCGGUGGCGCGAAAGCGCUAACGUUCUCAACUAUGAGACGCAAAACGCGUGCUCCGUUGAAUGGAGUUUAUCAUG | -3.87
GGAUCUUCUCGAUCUAACAAUAAAGACAAAUCUGCCACAAAGCUUGAGAGCAUCAACGGAUGCAGAGGCGUCAGCCUUCGGUGGCGCGAUAGCGCCAACGUUCUCAACUAUGACACGCAAAACGCGUGCUCCGUUGAAUGGAGUUUAUCAUG | -1.72
GGAUCUUCUCGAUCUAACAAUAAAGACAAAUCUGCCACAAAGCUUGAGAGCAUCUUCGGAUGCAGAGGCGGCAGCCUUCGGUAGCGCGAUAGCGCCAACGUUCUCAACUAUGACACGCAAAACGCGUGCUCCGUUGAAUGGAGUUUAUCAUG | -1.45
GGAUCUUCUCGAUCUAACAAUAAAGACAAAUCUGCCACAAAGCUUGAGAGCAUCAUCGGAUGUAGAGGCGGCAGCCUUCGGUGGUGCGAUAGCGCCAACGUUCUCAACUAUGACACGCAAAACGCGUGCUCCGUUGAAUGGAGUUUAUCAUG | 0.519
GGAUCUUCUCGAUCUAACAAUAAAGACAAAUCUGCCACAAAGCUUGAGAGCAUCUUCGGAUGCAGAGGCGGCAGCCUUCGGUGGCGCGAUAGCGCCAACGUUCUCAACUAUGACACGCAAAACGCGUGCUCCGUCGAAUGGAGUUUAUCAUG | -1.61
GGAUCUUCUCGAUCUAACAAUAAAGACAAAUCUGCCACAAAGCGUGAGAGCAUCUUCGGAUGCAGAGGCGGCAGCCUUCGGUGGCGCGAUAGCGCCAACGUUCUCAACUAUGACACGCAAAACGCGUGCUUCGUUCAAUGUAGUUUAUCAAG | ≤ -4.2
GGAUCUUCUCGAUCUAACAAACAAGACAAAUCUGCCACAAAGCUUGAGAGCAUCUUCGGAUGCAGAGGCGGCAGCCUUCGGUGGCGCGAUAGCGCCAACGUUCUCAACUAUGACACGCAAAACGCGUGCUCCGUUGAAUGGAGUUUAUCAUG | -0.18
GGAUCUUCUCGAUCUAACAAUAAAGACAAAUCGGCCACAAAGCUUGAGAGCAUCUUCGCAUGCAGAGGCGGGAGCCUUCGGUGGCGCGCUAGCGCAAACGUUCUCAACUAUGACCCGCAAAACGCGUGCUCCGUUGAAUGGAGUUCAUCAUG | ≤ -4.2
GGAUCUUCUCGAUCUAACAAUAAAGACAAAUCGGCCACAAAGCUUGAGAGCAUCUUCGGACACAGCGGCGGAAGCCUUCCGUGGUGCGAUAGCGCCAACGUUCUCAGCUAUGACACGCAAAACGCGUGCUCCGUUGAAUGGAGUUUAUCAUG | ≤ -4.2

From the RNAGym collection of RNA variant scans (doi:10.1073/pnas.2313332121)
